The nature of this data set: soluble on expression in E. coli; label from the status in PepcDB or PDB records.
“MGSDKIHHHHHHMKTTSPSSYDEMLNADGSVRSAYAGYCKWYDEQPPDLLRRKGSEAEAFFRRTGITFNVYGNEDAEERLIPFDMVPRIITAQQWRKLSRGIEQRVRALNAFLHDLYHRQEIVRSGRLPVRLLKGNEAFLPEMVGFTPPGGVYTHIVGIDLVRTGEDDFMVLEDNARTPSGVSYMLENRETMMAMFPELFTRVRVREVSDYPRRLARSLAACAPPACDGKKPVVAVLTPGIYNSAYFEHAFLADQMGAELVEGSDLRVENGRIAMRTTRGYQPIDVLYRRVDDEYLDPLSFNPGSVLGVSGIMDVYRSGGITIANAPGTGIADDKAIYSFMPEIVEFYTGEKPILQNVPTWRCAEPDALAYVLDNLAELVVKEVHGSGGYGMLIGPTSSRKELAAFEAKLRARPENYIAQPTLSLSTVPILTKAGLAPRHVDLRPFVLVSPNGIDITPGGLTRVALKKGSLVVNSSQGGGTKDSWVLDD”: the “soluble on expression in E. coli” value was “not soluble”.

As for “MSLSITSDLIATANSGIWTDSEMLECCAVVPEAPDTVTISFVSPSGNLFKYEPGQFLTLELPVPGGPLYRTYTISSSPSRPLSLSITVKAQPGSIGTRWMLEKLMPGMRVKAIGPAGQFTLDTTARKKKYLFISAGSGVTPTLAMTTYLYDRGTDIDVSIINCARRPGEIIGRRSLAAMASRVPSIKLTFIVEEDDPFQVWTGLRGRLNQIMIGIVAGDYLERDIYCCGPEPFMDAVREMLIGLGYDMSRYSQESFSAPAETAEDVPDLDDVTPDESVAAQITFVSSKVTAGCTETDTVLAVARGAGLNIPSGCTFGVCGTCKIRKTKGEVHMVHNGGISEDDIADGYILACCSKPVGQVEVDIEGHHHHHH”, the “soluble on expression in E. coli” value is “soluble”.

In the case of “MIGAILAGGYGKRLKPITDSIPKALVEIKDNYTIMDRQLFDFSIMGIEAVYILSGYLGNKIEERYGSRYRDMNIYYLREEKPLGTLYSLRNLIDEVKDDDIVLRNGDTVTDVNFLNFLKKAQDQKYYITMYVTRMKSPFGIVETFGDQIVQFREKPELNHYINAGLYYIKSDAFPYFFEKYIDRDLETTVFPRMAREGLIGSYTEEAMWIGIDSEKDLERIRADYRNREDYPWGYLKVLYDDDRSRLLEYAIKAGSDTEIDCGDGCILRIQSGLGTFGDSSDEKFRNGDVRSISGKVRVNAFENTRLELIISKKLEHHHHHH”, the “soluble on expression in E. coli” value is “soluble”.

As for “MSLTTELVDWTHEQKCRKAVAALEKNGFTAVYCPSGREAFDYILTEAVDARSIGFGGSLSVVDLQVIDRLREMDKELLIHGLPGLSLEERVAIMRRQLTCDLFLTGTNALTLSGWLVNIDATGNRVASMFFGPRTVIVVAGRNKIVDGGVTEAIARVKEWASPPNARRLSYKTPCATTGFCSDCNSPDRICRITTVIDRNPRLTDLRVLVVNEDMGLLEHHHHHH”, the “soluble on expression in E. coli” value was “soluble”.

As for “MSQGVEFNRLMLDMRAMQADAMSLPKVTAAPELAPGQSTFADMLGQAIGKVHETQQASTQLANAFEIGKSGVDLTDVMIASQKASVSMQAMTQVRNKLVQAYQDIMQMPV”, the “soluble on expression in E. coli” value is listed as “not soluble”.

On to “MTQTQPVGTLRLTIDDQGPQGQSRAVEQFHQGALRVIRPHYLDDSGQVCYTIIAIGGGYLGGDVYEQQFTIKDNAKALITTQSATKIYRTPQGPATQHTEINVGENAVLEYLADQTIAYREATYHQFTKVALHPSATFVMSEQITPGWHPDGKHFAYDEMRLHTEITDSTTGRLVLLDNLLLRPDSREGSFGWTEQYTHSGQMIVMGEGVDKQLVAELNEQLAAHPDVYGAVNFLSAPGTLLRGFIARTLSNRTEELINLHEHIASLLRGRWRGQEPVNLRKYLEHHHHHH”, for which the “soluble on expression in E. coli” value is given as “not soluble”.

As to “MEFGEKLIHLRKKNRLTQKQLAAKIGTTASTISKYENDNHRPPIFILAKLAEILGTTTDFLLDDVAGLREKNSVNAFPLIGNPELEKWYLELPYTYSEEELLMLKRIADAIENKK”, the “soluble on expression in E. coli” value is given as “not soluble”.

As to “MSLGETTNLTFLRTDGQNIVTGTGEIFHIRGVTLTNNFWGNWVNGESEKLQSQGMDPIIRPLVQDAWVLTDDDFERIKDLGCNTVLYDINYQLFAEDNPNREENLKKLKEHIRRFSSMDIYTAVMLMAPPGLDSINDAYEKYKHGSERIKSVFEDDTYYEQWVEMWKYLAEELKDFKGVAGYGLINQPRAPSESEGGIGIFRERLNNVCREIRKIDKNHIIFVPEYNSREANPGESYWNEKTNSYVIDNGEQGIIWERGLVKVDSSNVVYLFHFFEPYNFVNDGVGDFDAESLEAQVRKRYEWAKNVGRAPLLTEYGISRVNSVDKRVQWLETVHDIFDKYGISASYFQYKNAVGAFINVKTGFNALYGEYVSWDSEIGLNPFYFVNEHVATSAKENHFDEALKEYYLKGKNLKKISILDNQPILETLQNFWKEGHHHHHH”, the “soluble on expression in E. coli” value is listed as “soluble”.

As for “MALGGGTFVTQNKILPGSYINFISAKRATSSLSDRGIVAIPLELDWGIDEDVFQVTSDDFEKYSVKYFGYDYTHEKLKGLRDLFKNIRLGYFYKLNKGVKASCTIATAKYSGIRGNDLKVTVTTNIDDNAKFDVVTLLDNKKVDTQIAKVITDLQDNDYITWKKDATLEASAGLVFTGGTNGEAVTGAEYQAFLDKIESYSFNALGCLATTTEIKSLFVEFTKRMRDKVGAKFQTVLYKKSDADYEGVVSVENKIKEIGLVESSLIYWAAGAIAGCDINKSNTNKKYDGEFDVDVNYTQIQLEEALKTGKFIFHKVGDEVHVLEDINTFVSFTDDKNDDFSSNQSVRVLDQIANDIATLFNEKYLGKVPNDKAGRISFWNDVVKHHKELENIRAIEDFKTDDVSVELGNDKKTVIVSDAVKVINAMSKLYMTVSVNLEHHHHHH”, the “soluble on expression in E. coli” value was “soluble”.

“MFAPALAYPRPMPELPEVETTRRKIEPLLRGKTIERIVHDAPHRYRNTERAHGRQVRGLTRRGKYLLLHLAAADAAEDEPHDLELIVHLGMTGGFRLEEGPHTRVTFELGSGEKLYFNDPRRFGKVVAVAPGDYASMPTLAAMGPEPLSDDFTEAEFVALAARCGPVKPWLLSQKPVSGVGNIYADESLWHARLHPAQTRLNADEAGRLYRAIREVMAAAVDKGGSSLGNGVGNYRQHDGEGGGFQHSHHVYGRAGQPCDRCGTPIEKIVLGQRGTHFCPVCQPLRTDRSA”: the “soluble on expression in E. coli” value is recorded as “not soluble”.

Regarding “PRLTRRLTGFLPQEIKSIDTMIPLLSRALWNKHQVKKFNKAEDFQDRFIDHVETTLARSLYNCDDMVAYEAASMSIRDNLVIDWNKTQQKFTTRDPKRVYYLSLEFLMGRALDNALINMKIEDPEDPAASKGKPREMIKGALDELGFKLEDVLDQEPDAGLGNGGLGRLAACFVDSMATEGIPAWGYGLRYEYGIFAQKIIDGYQVETPDYWLNSGNPWEIERNEVQIPVTFYGYVDRPEGGKTTLSASQWIGGERVLAVAYDFPVPGFKTSNVNNLRLWQARPTTEFDLNKFNNGDYKNSVAQQQRAESITAVLYPNDNFAQGKELRLKQQYFWCAASLHDILRRFKKSKRPWTEFPDQVAIQLNDTHPTLAIVELQRVLVDLEKLDWHEAWDIVTKTFAYTNHTVMQEALEKWPRRLFGHLLPRHLEIIYDINWFFLEDVAKKFPKDVDLLSRISIIEENSPERQIRMAFLAIVGSHKVNGVVELHSELIKTTIFKDFIKFYGPSKFVNVTNGITPRRWLKQANPSLAKLISETLNDPTEEYLLDMAKLTQLEKYVEDKEFLKKWNQVKLNNKIRLVDLIKKENDGVDIINREYLDDTLFDMQVKRIHEYKRQQLNVFGIIYRYLAMKNMLKNGASIEEVARKYPRKVSIFGGKSAPGYYMAKLIIKLINCVADIVNNDESIEHLLKVVFVADYNVSKAEIIIPASDLSEHISTAGTEASGTSNMKFVMNGGLIIGTVDGANVEITREIGEDNVFLFGNLSENVEELRYNHQYHPQDLPSSLDSVLSYIESGQFSPENPNEFKPLVDSIKYHGDYYLVSDDFESYLATHELVDQEFHNQRSEWLKKSVLSLANVGFFSSDRCIEEYSDTIWNVEPVT”, the “soluble on expression in E. coli” value is “soluble”.

Turning to “MASDNLSAVLYKQNDLRLEQRPIPEPKEDEVLLQMAYVGICGSDVHYYEHGRIADFIVKDPMVIGHEASGTVVKVGKNVKHLKKGDRVAVEPGVPCRRCQFCKEGKYNLCPDLTFCATPPDDGNLARYYVHAADFCHKLPDNVSLEEGALLEPLSVGVHACRRAGVQLGTTVLVIGAGPIGLVSVLAAKAYGAFVVCTARSPRRLEVAKNCGADVTLVVDPAKEEESSIIERIRSAIGDLPNVTIDCSGNEKCITIGINITRTGGTLMLVGMGSQMVTVPLVNACAREIDIKSVFRYCNDYPIALEMVASGRCNVKQLVTHSFKLEQTVDAFEAARKKADNTIKVMISCRQG”, the “soluble on expression in E. coli” value is “soluble”.

“MAQPIVVAALYKFVTLEDYVNLREPLLQAMLDNGIKGTLLIAEEGINGTVSGSREGIDGLLAWLKNDPRMVDIDHKESYCDEQPFYRTKVKLKKEIVTLGVPGVDPNKKVGTYVEPQDWNALISDPEVLLIDTRNDYEVSIGTFEGAIDPKTTSFREFPDYIKAHFDPSKHKKVAMFCTGGIRCEKASSYMLSEGFDEVFHLKGGILKYLEEVPQQESKWQGDCFVFDNRVTVRHDLSEGDYDQCHACRTPVSVEDRASEHYVPGISCPHCWDKLSEKTRRSAIDRQKQIELAKARNMPHPIGYNYKQSSSEALEHHHHHH”: the “soluble on expression in E. coli” value is “not soluble”.

Take “MGSDKIHHHHHHMRISANFDGGNIETISLANPDDIQLAIRPDAGGEFYQWFNFRFEATIGKTYTLNILNAGGASYLKGWEDYQAVASYDRQTWFRLPTEYKDGKLSISVELDCEAIQIAYFTPYSYERHLDLISAVQLHPLVSTEHLGLTLDGRDMTLVKVGDDDPSKKSIWITARQHPGETMAEWLVEGLLNQLLDNDCPTSKALLDKANFYIVPNMNPDGSVRGHLRTNAVGANLNREWQTPSLERSPEVYYVVNKMHETGVDLFYDVHGDEGLPYVFLAGCEGIPNYSDKLASLQQDFVAALSLASADFQTEFGYDKDEPGKANLTVACNWVANTFKCLSNTLEMPFKDNANLADPFQGWSPERSVYFGEASLIAMRAVIDKIGQ”: the “soluble on expression in E. coli” value is recorded as “not soluble”.

Consider “GPGSMSLLNTTLQTLVVRLRDMSGNVTQQKLHNRVFDAYEAKSLVFEAISPEQQAVMQQFGTIPSQHPAGQPVLLDGWADLLTVHREDNLYQLLPRRAKNNASYSTMRAICCSAGSPFTMDHRVDPIDYKFVFRAADMEVRNKFNATNQDKIPPTIWFDGILSAPNDSGLVSCHNSLSPAHINNLAGTYQFLKEWSNEPPEGDRHRQLKEMYSNLLSKRTHLFIGSSSVPGREILNYARSKNVFVYAKRGMHYVFHA”, for which the “soluble on expression in E. coli” value is on record as “not soluble”.

For “GAMSEAFHTHSGIGVPLRRSNVDTDQIIPAVFLKRVTRTGFEDGLFAGWRSDPAFVLNLSPFDRGSVLVAGPDFGTGSSREHAVWALMDYGFRVVISSRFGDIFRGNAGKAGLLAAEVAQDDVELLWKLIEQSPGLEITANLQDRIITAATVVLPFKIDDHSAWRLLEGLDDIALTLRKLDEIEAFEGA”, the “soluble on expression in E. coli” value is on record as “soluble”.

For the sequence “MGSDKIHHHHHHMVNHTQFRQWGRKVIDIEKAALDNLYQYVDSVEFDQACQLIMQCKGKVIVMGMGKSGHIGNKISATFASTGTPAFFVHPGEASHGDLGALAKNDIVLAISNSGESSEILTLMPVIQRMGVPVIAVTGKPDSNMARLSKIHLCIQVQEEACPLGLAPTSSTTATLAMGDALAIALLQAKGFTRDDFALSHPGGSLGRKLLLKVDDVMHQGDDLPIVNDDICITDALYEISKKGLGMTAVVDHASKLVGIFTDGDLRRVIDADVNLRTTSIAHVMTKNCVTSPAGILAAQALQIMDEKSINGLIVVNEKHQPIGALNMLDMVKAGVI”, the “soluble on expression in E. coli” value is “not soluble”.

The values are drawn from the DeepSol protein solubility set.
